Results published in patent US20250262210A1 (TRUSTEES OF COLUMBIA UNIVERSITY IN THE CITY OF NEW YORK, published 2025).

Columns and labels:
Experiment in all cases: IP/MS, LZTR1 wild type-FLAG, U87
RTTN = RTTN (human, UniProt Q86VV8 1-2226, limits assumed)
Procedure, shortened: (§1)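 Read-out: spectral counts from LC-MS/MS (Orbitrap Fusion) after MaxQuant identification. Variable modifications were Met oxidation, protein N-terminal acetylation and N/Q deamidation.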

CDC42BPA = CDC42BPA (human, UniProt Q5VT25 1-1732, limits assumed)
Sequence of CDC42BPA (Q5VT25 whole entry): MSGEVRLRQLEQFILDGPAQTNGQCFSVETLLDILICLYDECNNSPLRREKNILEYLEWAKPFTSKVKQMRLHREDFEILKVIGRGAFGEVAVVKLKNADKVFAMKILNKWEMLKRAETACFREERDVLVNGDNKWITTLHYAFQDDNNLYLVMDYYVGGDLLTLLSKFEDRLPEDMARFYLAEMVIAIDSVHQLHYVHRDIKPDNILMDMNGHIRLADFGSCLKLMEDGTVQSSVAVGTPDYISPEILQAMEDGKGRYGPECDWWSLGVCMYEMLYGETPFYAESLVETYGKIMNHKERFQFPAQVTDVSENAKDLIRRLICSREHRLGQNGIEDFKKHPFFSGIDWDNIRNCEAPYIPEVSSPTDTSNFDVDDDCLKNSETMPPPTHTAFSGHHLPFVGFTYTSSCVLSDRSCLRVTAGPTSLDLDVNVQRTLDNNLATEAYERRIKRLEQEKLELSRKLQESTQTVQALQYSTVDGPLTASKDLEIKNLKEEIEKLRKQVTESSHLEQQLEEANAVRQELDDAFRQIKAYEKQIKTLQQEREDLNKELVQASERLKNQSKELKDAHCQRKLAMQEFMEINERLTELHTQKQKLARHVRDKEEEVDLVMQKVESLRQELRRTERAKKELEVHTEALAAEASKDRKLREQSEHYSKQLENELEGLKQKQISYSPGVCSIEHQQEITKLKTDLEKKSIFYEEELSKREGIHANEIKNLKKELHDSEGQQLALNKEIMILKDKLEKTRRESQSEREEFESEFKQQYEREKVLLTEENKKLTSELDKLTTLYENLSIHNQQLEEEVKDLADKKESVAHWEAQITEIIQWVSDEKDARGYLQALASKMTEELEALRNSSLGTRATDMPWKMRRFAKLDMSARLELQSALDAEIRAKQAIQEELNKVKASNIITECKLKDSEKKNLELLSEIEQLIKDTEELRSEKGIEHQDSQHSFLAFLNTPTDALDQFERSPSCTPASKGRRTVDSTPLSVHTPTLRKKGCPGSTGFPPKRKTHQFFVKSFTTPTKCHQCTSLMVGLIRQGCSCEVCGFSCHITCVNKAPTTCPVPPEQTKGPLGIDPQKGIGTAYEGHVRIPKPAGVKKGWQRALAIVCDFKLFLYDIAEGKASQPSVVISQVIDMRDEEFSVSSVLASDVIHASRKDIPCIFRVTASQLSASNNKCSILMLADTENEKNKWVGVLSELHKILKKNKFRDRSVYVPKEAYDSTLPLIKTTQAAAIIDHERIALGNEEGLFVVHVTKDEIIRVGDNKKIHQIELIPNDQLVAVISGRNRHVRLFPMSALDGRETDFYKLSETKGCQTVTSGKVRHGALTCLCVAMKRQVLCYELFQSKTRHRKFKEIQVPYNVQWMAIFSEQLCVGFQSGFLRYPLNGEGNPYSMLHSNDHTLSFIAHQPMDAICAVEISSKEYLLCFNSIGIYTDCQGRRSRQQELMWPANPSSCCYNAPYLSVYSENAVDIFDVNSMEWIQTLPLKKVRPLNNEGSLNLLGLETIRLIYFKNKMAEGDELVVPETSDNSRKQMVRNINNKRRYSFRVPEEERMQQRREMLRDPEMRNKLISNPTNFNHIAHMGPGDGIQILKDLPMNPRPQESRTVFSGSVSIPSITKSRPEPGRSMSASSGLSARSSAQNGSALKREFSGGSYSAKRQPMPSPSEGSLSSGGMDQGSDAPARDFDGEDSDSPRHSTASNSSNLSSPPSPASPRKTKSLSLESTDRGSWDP
Procedure, shortened: as §1

DIP2B = DIP2B (human, UniProt Q9P265 1-1576)
Sequence of DIP2B (Q9P265 whole entry): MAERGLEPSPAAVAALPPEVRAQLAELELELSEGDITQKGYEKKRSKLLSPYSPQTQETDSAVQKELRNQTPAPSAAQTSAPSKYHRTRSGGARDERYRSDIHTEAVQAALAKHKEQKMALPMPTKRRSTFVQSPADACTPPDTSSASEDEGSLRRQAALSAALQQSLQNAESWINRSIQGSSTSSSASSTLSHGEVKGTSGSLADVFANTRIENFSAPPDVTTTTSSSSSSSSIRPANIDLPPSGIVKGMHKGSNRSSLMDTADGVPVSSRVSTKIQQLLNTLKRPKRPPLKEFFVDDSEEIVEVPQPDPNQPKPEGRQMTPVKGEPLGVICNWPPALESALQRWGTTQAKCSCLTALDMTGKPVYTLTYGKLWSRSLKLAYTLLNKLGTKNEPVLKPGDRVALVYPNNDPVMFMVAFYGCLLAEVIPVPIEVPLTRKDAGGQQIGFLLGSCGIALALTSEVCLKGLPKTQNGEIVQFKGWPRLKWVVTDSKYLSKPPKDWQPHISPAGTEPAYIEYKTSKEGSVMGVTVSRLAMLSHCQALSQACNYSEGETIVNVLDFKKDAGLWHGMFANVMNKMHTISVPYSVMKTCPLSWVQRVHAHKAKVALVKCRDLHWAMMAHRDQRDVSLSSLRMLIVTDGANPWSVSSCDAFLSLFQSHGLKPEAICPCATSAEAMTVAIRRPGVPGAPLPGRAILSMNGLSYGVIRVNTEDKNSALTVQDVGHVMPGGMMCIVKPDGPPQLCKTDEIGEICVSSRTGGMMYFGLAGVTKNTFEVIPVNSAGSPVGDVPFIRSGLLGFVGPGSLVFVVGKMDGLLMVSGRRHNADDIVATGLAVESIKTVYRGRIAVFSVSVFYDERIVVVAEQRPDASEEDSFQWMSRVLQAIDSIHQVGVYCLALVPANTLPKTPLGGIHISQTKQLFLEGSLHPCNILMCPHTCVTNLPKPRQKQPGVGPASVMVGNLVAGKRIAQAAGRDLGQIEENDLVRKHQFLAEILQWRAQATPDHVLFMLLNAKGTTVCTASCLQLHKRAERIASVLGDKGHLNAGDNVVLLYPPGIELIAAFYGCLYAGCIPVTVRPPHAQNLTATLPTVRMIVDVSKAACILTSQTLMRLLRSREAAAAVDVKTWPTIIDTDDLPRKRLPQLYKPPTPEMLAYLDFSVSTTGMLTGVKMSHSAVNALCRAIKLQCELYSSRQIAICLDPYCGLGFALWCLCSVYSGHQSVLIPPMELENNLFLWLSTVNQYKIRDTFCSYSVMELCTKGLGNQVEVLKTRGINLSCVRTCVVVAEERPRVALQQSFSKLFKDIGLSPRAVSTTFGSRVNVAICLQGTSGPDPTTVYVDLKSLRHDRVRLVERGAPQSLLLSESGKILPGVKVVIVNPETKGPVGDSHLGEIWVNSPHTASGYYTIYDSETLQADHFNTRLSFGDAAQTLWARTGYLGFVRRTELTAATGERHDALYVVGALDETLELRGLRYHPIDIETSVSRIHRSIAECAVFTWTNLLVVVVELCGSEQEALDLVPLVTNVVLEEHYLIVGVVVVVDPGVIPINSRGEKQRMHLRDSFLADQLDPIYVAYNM
Procedure, shortened: as §1

HECTD3 = molecular target: T1, HECTD3 (human, UniProt Q5T447 2-861, limits assumed)
T1 sequence (looked up): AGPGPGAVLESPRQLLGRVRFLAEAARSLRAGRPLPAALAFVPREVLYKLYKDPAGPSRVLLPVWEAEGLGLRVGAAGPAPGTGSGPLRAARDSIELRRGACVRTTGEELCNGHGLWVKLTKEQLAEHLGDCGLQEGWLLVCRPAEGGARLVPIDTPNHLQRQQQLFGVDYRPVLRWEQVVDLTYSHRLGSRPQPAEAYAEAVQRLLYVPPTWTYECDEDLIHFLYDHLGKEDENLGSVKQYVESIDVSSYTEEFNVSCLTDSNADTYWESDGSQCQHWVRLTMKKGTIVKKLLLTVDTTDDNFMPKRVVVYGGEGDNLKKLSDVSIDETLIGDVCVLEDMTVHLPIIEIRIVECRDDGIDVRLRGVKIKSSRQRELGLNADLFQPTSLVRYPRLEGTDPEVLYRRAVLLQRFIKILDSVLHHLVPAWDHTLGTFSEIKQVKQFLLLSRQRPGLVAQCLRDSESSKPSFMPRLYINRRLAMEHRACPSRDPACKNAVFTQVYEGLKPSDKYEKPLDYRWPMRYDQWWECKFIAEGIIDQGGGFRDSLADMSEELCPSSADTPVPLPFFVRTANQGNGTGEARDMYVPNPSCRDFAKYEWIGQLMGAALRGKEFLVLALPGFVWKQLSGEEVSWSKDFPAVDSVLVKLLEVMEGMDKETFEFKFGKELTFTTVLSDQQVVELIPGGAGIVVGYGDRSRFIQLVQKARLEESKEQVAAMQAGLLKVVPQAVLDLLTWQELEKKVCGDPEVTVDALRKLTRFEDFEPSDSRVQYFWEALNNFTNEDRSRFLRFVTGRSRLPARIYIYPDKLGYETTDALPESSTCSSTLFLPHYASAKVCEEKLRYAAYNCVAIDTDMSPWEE
Procedure, shortened: as §1

RICTOR = RICTOR (human, UniProt Q6R327 1-1708, limits assumed)
Sequence of RICTOR (Q6R327 whole entry): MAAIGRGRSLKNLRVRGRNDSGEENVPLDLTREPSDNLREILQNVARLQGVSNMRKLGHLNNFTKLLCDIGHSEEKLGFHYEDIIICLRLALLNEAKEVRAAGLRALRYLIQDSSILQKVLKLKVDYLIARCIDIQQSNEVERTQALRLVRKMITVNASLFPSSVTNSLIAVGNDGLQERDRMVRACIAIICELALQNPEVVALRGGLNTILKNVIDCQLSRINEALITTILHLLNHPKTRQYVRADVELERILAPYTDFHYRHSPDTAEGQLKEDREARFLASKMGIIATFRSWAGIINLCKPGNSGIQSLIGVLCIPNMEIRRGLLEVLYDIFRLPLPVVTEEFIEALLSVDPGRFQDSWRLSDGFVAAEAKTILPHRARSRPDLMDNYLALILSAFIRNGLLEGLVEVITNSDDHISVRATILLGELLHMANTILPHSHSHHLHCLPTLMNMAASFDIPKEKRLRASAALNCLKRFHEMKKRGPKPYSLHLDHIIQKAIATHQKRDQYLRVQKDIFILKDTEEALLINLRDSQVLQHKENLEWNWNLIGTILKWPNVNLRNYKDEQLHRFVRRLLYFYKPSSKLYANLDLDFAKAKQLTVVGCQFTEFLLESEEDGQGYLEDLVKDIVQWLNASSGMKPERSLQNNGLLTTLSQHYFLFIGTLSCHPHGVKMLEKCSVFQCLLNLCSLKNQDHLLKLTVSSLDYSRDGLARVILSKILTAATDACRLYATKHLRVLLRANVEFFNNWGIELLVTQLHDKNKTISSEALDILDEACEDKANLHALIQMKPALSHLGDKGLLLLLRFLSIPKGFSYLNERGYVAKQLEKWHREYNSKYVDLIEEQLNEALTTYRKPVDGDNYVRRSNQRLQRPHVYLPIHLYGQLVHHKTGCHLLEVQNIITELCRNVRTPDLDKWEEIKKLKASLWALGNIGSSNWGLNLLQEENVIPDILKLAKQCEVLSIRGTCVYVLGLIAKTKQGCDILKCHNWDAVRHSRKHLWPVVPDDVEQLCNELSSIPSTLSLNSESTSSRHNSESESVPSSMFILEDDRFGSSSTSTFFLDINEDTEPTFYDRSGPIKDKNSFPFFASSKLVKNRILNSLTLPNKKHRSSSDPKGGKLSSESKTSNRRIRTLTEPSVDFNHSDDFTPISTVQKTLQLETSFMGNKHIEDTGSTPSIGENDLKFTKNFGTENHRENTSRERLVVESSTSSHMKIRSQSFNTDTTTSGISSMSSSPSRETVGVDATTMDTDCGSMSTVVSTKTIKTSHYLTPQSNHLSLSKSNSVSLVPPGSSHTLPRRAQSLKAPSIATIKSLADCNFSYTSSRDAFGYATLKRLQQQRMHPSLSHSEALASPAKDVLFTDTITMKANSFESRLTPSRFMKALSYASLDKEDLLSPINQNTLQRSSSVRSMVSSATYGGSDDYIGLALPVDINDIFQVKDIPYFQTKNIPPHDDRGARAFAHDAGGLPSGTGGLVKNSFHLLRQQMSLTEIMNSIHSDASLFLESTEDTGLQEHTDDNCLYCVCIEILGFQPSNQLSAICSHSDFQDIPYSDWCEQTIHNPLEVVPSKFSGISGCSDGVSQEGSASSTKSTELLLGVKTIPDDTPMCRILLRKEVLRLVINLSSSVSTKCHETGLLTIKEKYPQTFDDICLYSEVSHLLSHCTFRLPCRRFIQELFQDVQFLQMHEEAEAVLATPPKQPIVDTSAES
Procedure, shortened: as §1

PARP14 = PARP14 (human, UniProt Q460N5 1-1801, limits assumed)
Procedure, shortened: as §1

INTS1 = INTS1 (human, UniProt Q8N201 1-2190)
Procedure, shortened: as §1

Measured: binding result

B1: LZTR1-FLAG (other, human, UniProt Q8N653 1-840, looked up)
chain: MAGPGSTGGQIGAAALAGGARSKVAPSVDFDHSCSDSVEYLTLNFGPFETVHRWRRLPPCDEFVGARRSKHTVVAYKDAIYVFGGDNGKTMLNDLLRFDVKDCSWCRAFTTGTPPAPRYHHSAVVYGSSMFVFGGYTGDIYSNSNLKNKNDLFEYKFATGQWTEWKIEGRLPVARSAHGATVYSDKLWIFAGYDGNARLNDMWTIGLQDRELTCWEEVAQSGEIPPSCCNFPVAVCRDKMFVFSGQSGAKITNNLFQFEFKDKTWTRIPTEHLLRGSPPPPQRRYGHTMVAFDRHLYVFGGAADNTLPNELHCYDVDFQTWEVVQPSSDSEVGGAEVPERACASEEVPTLTYEERVGFKKSRDVFGLDFGTTSAKQPTQPASELPSGRLFHAAAVISDAMYIFGGTVDNNIRSGEMYRFQFSCYPKCTLHEDYGRLWESRQFCDVEFVLGEKEECVQGHVAIVTARSRWLRRKITQARERLAQKLEQEAAPVPREAPGVAAGGARPPLLHVAIREAEARPFEVLMQFLYTDKIKYPRKGHVEDVLLIMDVYKLALSFQLCRLEQLCRQYIEASVDLQNVLVVCESAARLQLSQLKEHCLNFVVKESHFNQVIMMKEFERLSSPLIVEIVRRKQQPPPRTPLDQPVDIGTSLIQDMKAYLEGAGAEFCDITLLLDGHPRPAHKAILAARSSYFEAMFRSFMPEDGQVNISIGEMVPSRQAFESMLRYIYYGEVNMPPEDSLYLFAAPYYYGFYNNRLQAYCKQNLEMNVTVQNVLQILEAADKTQALDMKRHCLHIIVHQFTKVSKLPTLRSLSQQLLLDIIDSLASHISDKQCAELGADI
notes: Expressed in HEK 293T, HeLa or U87 cells; used as cell lysate; also called LZTR1 wild type-FLAG; LZTR1 WT; not shown: FLAG tag at the C-terminus
binds: all assays above
